Paper PMC9409278, “Conformational Changes of α-Crystallin Proteins Induced by Heat Stress” (International Journal of Molecular Sciences, 2022)

Biological target: the molecule itself
Assay: SEC; HiPrep Sephacryl S-300 HR 16/60 column, 20 mM phosphate buffer, pH 7.4, 150 mM NaCl; each crystallin alone

B1: αB crystallin (natural protein, human, UniProt P02511 1-175, looked up)
chain: MDIAIHHPWIRRPFFPFHSPSRLFDQFFGEHLLESDLFPTSTSLSPFYLRPPSFLRAPSWFDTGLSEMRLEKDRFSVNLDVKHFSPEELKVKVLGDVIEVHGKHEERQDEHGFISREFHRKYRIPADVDPLTITSSLSSDGVLTVNGPRKQVSGPERTIPITREEKPAVTAAPKK
notes: αB crystallin, human, open reading frame of the full-length gene in pET28; Homo-oligomer in solution; No removal of the His tag is mentioned; also called alpha-B crystallin; source: E. coli BL21(DE3), purified (Ni-NTA, size-exclusion chromatography)
B1: binds.
